Experiment [1] deals with T1, VEGF (UniProt P15692-9 27-147).
T1 construct: also called VEGF121
T1 sequence (looked up): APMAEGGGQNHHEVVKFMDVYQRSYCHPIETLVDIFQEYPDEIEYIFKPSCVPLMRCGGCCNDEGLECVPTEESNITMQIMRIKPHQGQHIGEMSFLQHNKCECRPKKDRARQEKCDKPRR
The experiment is described as follows: bridging ELISA, capture VEGF, detection biocytinamid-Cy5 or digoxygenin-Cy5. In general terms: An ELISA detects its analyte on a solid surface through an enzyme-linked reagent.

Experiment [2] has as its target T1, VEGF. The experiment is described as follows: bridging ELISA of exchange reaction mix: capture VEGF, detection biocytinamid-Cy5; signal needs both specificities; highest value = 100%, input 1.3 µM.
The target in experiment [3] is T1, VEGF. Nature of the experiment: bridging ELISA of exchange reaction mix: capture VEGF, detection digoxygenin-Cy5; signal needs both specificities; highest value = 100%, input 1.3 µM.

B1: bsAb from exchange reaction between anti-bio 2/3-IgG (MHCFcRP-knob-E357K) and anti-fluos 2/3-IgG (MHCFcRP-hole-K370E) (bispecific antibody)
heavy 1: not shown
light 1: DIQMTQSPSSLSASVGDRVTITCRASGNIHNYLSWYQQKPGKVPKLLIYSAKTLADGVPSRFSGSGSGTDFTLTISSLQPEDVATYYCQHFWSSIYTFGQGTKLEIKRTVAAPSVFIFPPSDEQLKSGTASVVCLLNNFYPREAKVQWKVDNALQSGNSQESVTEQDSKDSTYSLSSTLTLSKADYEKHKVYACEVTHQGLSSPVTKSFNRGEC
heavy 2: not shown
light 2: DIVMTQTPLSLSVTPGQPASISCKSSQSLVHSNGNTYLRWYLQKPGQSPKVLIYKVSNRVSGVPDRFSGSGSGTDFTLKISRVEAEDVGVYYCSQSTHVPWTFGQGTKLEIKRTVAAPSVFIFPPSDEQLKSGTASVVCLLNNFYPREAKVQWKVDNALQSGNSQESVTEQDSKDSTYSLSSTLTLSKADYEKHKVYACEVTHQGLSSPVTKSFNRGEC
notes: Exchange product as applied in the reaction mix; also called bio fluos
Regarding B1, the binding result with VEGF [1] was “no binding (tested: 1.3 µM input molecule concentration)”. In addition, the relative signal intensity with VEGF [2] stood at 9%; with VEGF [3] it was 7.2%.

B2: bsAb from exchange reaction between anti-PDGF 2/3-IgG (MHCFcRP-knob-E357K) and anti-bio 2/3-IgG (MHCFcRP-hole-K370E) (bispecific antibody, not shown: small tags and cut ends)
heavy 1: EVQLVESGGGLVQPGGSLRLSCAASGFTFSSYWMSWVRQAPEKGLEWVSTISDGGGLTYYADSVKGRFTISRDNAKNSLYLQMNSLRAEDTAVYYCAESGGYTDWLFGYWGQGTLVTVSSASTKGPSVFPLAPSSKSTSGGTAALGCLVKDYFPEPVTVSWNSGALTSGVHTFPAVLQSSGLYSLSSVVTVPSSSLGTQTYICNVNHKPSNTKVDKKVEPKSC
light 1: not shown
heavy 2: not shown
light 2: DIQMTQSPSSLSASVGDRVTITCRASGNIHNYLSWYQQKPGKVPKLLIYSAKTLADGVPSRFSGSGSGTDFTLTISSLQPEDVATYYCQHFWSSIYTFGQGTKLEIKRTVAAPSVFIFPPSDEQLKSGTASVVCLLNNFYPREAKVQWKVDNALQSGNSQESVTEQDSKDSTYSLSSTLTLSKADYEKHKVYACEVTHQGLSSPVTKSFNRGEC
notes: Exchange product as applied in the reaction mix; also called PDGF bio
As for B2, the binding result with VEGF [1] is “no binding (tested: 1.3 µM input molecule concentration)”. In addition, the relative signal intensity with VEGF [2] was 10.5%; in the experiment with VEGF [3], 6%.

B3: bsAb from exchange reaction between anti-dig 2/3-IgG (MHCFcRP-knob-E357K) and anti-bio 2/3-IgG (MHCFcRP-hole-K370E) (bispecific antibody, not shown: small tags and cut ends)
heavy 1: QVQLVESGGGLVKPGGSLRLSCAASGFTFSDYAMSWIRQAPGKGLEWVSSINIGATYIYYADSVKGRFTISRDNAKNSLYLQMNSLRAEDTAVYYCARPGSPYEYDKAYYSMAYWGQGTTVTVSSASTKGPSVFPLAPSSKSTSGGTAALGCLVKDYFPEPVTVSWNSGALTSGVHTFPAVLQSSGLYSLSSVVTVPSSSLGTQTYICNVNHKPSNTKVDKKVEPKSC
light 1: not shown
heavy 2: not shown
light 2: DIQMTQSPSSLSASVGDRVTITCRASGNIHNYLSWYQQKPGKVPKLLIYSAKTLADGVPSRFSGSGSGTDFTLTISSLQPEDVATYYCQHFWSSIYTFGQGTKLEIKRTVAAPSVFIFPPSDEQLKSGTASVVCLLNNFYPREAKVQWKVDNALQSGNSQESVTEQDSKDSTYSLSSTLTLSKADYEKHKVYACEVTHQGLSSPVTKSFNRGEC
notes: Exchange product as applied in the reaction mix; also called dig bio
Turning to B3, the binding result in the experiment with VEGF [1] is “no binding (tested: 1.3 µM input molecule concentration)”. The results for the relative signal intensity with VEGF [2] and with VEGF [3] were 9% and 6.2%, respectively.

B4: bsAb from exchange reaction between anti-fluos 2/3-IgG (MHCFcRP-knob-E357K) and anti-dig 2/3-IgG (MHCFcRP-hole-K370E) (bispecific antibody, not shown: small tags and cut ends)
heavy 1: not shown
light 1: DIVMTQTPLSLSVTPGQPASISCKSSQSLVHSNGNTYLRWYLQKPGQSPKVLIYKVSNRVSGVPDRFSGSGSGTDFTLKISRVEAEDVGVYYCSQSTHVPWTFGQGTKLEIKRTVAAPSVFIFPPSDEQLKSGTASVVCLLNNFYPREAKVQWKVDNALQSGNSQESVTEQDSKDSTYSLSSTLTLSKADYEKHKVYACEVTHQGLSSPVTKSFNRGEC
heavy 2: QVQLVESGGGLVKPGGSLRLSCAASGFTFSDYAMSWIRQAPGKGLEWVSSINIGATYIYYADSVKGRFTISRDNAKNSLYLQMNSLRAEDTAVYYCARPGSPYEYDKAYYSMAYWGQGTTVTVSSASTKGPSVFPLAPSSKSTSGGTAALGCLVKDYFPEPVTVSWNSGALTSGVHTFPAVLQSSGLYSLSSVVTVPSSSLGTQTYICNVNHKPSNTKVDKKVEPKSC
light 2: not shown
notes: Exchange product as applied in the reaction mix; also called fluos dig
In the case of B4, in the experiment with VEGF [1], the binding result is given as “no binding (tested: 1.3 µM input molecule concentration)”. Also, the relative signal intensity in the experiment with VEGF [2] came to 9.4%; in the experiment with VEGF [3] it was 6.3%.

B5: bsAb from exchange reaction between anti-dig 2/3-IgG (MHCFcRP-knob-E357K) and anti-fluos 2/3-IgG (MHCFcRP-hole-K370E) (bispecific antibody, not shown: small tags and cut ends)
heavy 1: QVQLVESGGGLVKPGGSLRLSCAASGFTFSDYAMSWIRQAPGKGLEWVSSINIGATYIYYADSVKGRFTISRDNAKNSLYLQMNSLRAEDTAVYYCARPGSPYEYDKAYYSMAYWGQGTTVTVSSASTKGPSVFPLAPSSKSTSGGTAALGCLVKDYFPEPVTVSWNSGALTSGVHTFPAVLQSSGLYSLSSVVTVPSSSLGTQTYICNVNHKPSNTKVDKKVEPKSC
light 1: not shown
heavy 2: not shown
light 2: DIVMTQTPLSLSVTPGQPASISCKSSQSLVHSNGNTYLRWYLQKPGQSPKVLIYKVSNRVSGVPDRFSGSGSGTDFTLKISRVEAEDVGVYYCSQSTHVPWTFGQGTKLEIKRTVAAPSVFIFPPSDEQLKSGTASVVCLLNNFYPREAKVQWKVDNALQSGNSQESVTEQDSKDSTYSLSSTLTLSKADYEKHKVYACEVTHQGLSSPVTKSFNRGEC
notes: Exchange product as applied in the reaction mix; also called dig fluos
In the case of B5, the binding result in the experiment with VEGF [1] was “no binding (tested: 1.3 µM input molecule concentration)”. In addition, the relative signal intensity with VEGF [2] worked out at 9.1%; with VEGF [3], 6.7%.

B6: bsAb from exchange reaction between anti-fluos 2/3-IgG (MHCFcRP-knob-E357K) and anti-bio 2/3-IgG (MHCFcRP-hole-K370E) (bispecific antibody)
heavy 1: not shown
light 1: DIVMTQTPLSLSVTPGQPASISCKSSQSLVHSNGNTYLRWYLQKPGQSPKVLIYKVSNRVSGVPDRFSGSGSGTDFTLKISRVEAEDVGVYYCSQSTHVPWTFGQGTKLEIKRTVAAPSVFIFPPSDEQLKSGTASVVCLLNNFYPREAKVQWKVDNALQSGNSQESVTEQDSKDSTYSLSSTLTLSKADYEKHKVYACEVTHQGLSSPVTKSFNRGEC
heavy 2: not shown
light 2: DIQMTQSPSSLSASVGDRVTITCRASGNIHNYLSWYQQKPGKVPKLLIYSAKTLADGVPSRFSGSGSGTDFTLTISSLQPEDVATYYCQHFWSSIYTFGQGTKLEIKRTVAAPSVFIFPPSDEQLKSGTASVVCLLNNFYPREAKVQWKVDNALQSGNSQESVTEQDSKDSTYSLSSTLTLSKADYEKHKVYACEVTHQGLSSPVTKSFNRGEC
notes: Exchange product as applied in the reaction mix; also called fluos bio
B6: the binding result in the experiment with VEGF [1] was “no binding (tested: 1.3 µM input molecule concentration)”. Also, the figures for the relative signal intensity with VEGF [2] and with VEGF [3] were 10.2% and 6.5%, respectively.

B7: bsAb from exchange reaction between anti-bio 2/3-IgG (MHCFcRP-knob-E357K) and anti-PDGF 2/3-IgG (MHCFcRP-hole-K370E) (bispecific antibody, not shown: small tags and cut ends)
heavy 1: not shown
light 1: DIQMTQSPSSLSASVGDRVTITCRASGNIHNYLSWYQQKPGKVPKLLIYSAKTLADGVPSRFSGSGSGTDFTLTISSLQPEDVATYYCQHFWSSIYTFGQGTKLEIKRTVAAPSVFIFPPSDEQLKSGTASVVCLLNNFYPREAKVQWKVDNALQSGNSQESVTEQDSKDSTYSLSSTLTLSKADYEKHKVYACEVTHQGLSSPVTKSFNRGEC
heavy 2: EVQLVESGGGLVQPGGSLRLSCAASGFTFSSYWMSWVRQAPEKGLEWVSTISDGGGLTYYADSVKGRFTISRDNAKNSLYLQMNSLRAEDTAVYYCAESGGYTDWLFGYWGQGTLVTVSSASTKGPSVFPLAPSSKSTSGGTAALGCLVKDYFPEPVTVSWNSGALTSGVHTFPAVLQSSGLYSLSSVVTVPSSSLGTQTYICNVNHKPSNTKVDKKVEPKSC
light 2: not shown
notes: Exchange product as applied in the reaction mix; also called bio PDGF
For the molecule B7, the binding result with VEGF [1] is “no binding (tested: 1.3 µM input molecule concentration)”. Besides, the relative signal intensity with VEGF [2] was determined as 10.1%; with VEGF [3], 6.1%.

B8: bsAb from exchange reaction between anti-bio 2/3-IgG (MHCFcRP-knob-E357K) and anti-dig 2/3-IgG (MHCFcRP-hole-K370E) (bispecific antibody, not shown: small tags and cut ends)
heavy 1: not shown
light 1: DIQMTQSPSSLSASVGDRVTITCRASGNIHNYLSWYQQKPGKVPKLLIYSAKTLADGVPSRFSGSGSGTDFTLTISSLQPEDVATYYCQHFWSSIYTFGQGTKLEIKRTVAAPSVFIFPPSDEQLKSGTASVVCLLNNFYPREAKVQWKVDNALQSGNSQESVTEQDSKDSTYSLSSTLTLSKADYEKHKVYACEVTHQGLSSPVTKSFNRGEC
heavy 2: QVQLVESGGGLVKPGGSLRLSCAASGFTFSDYAMSWIRQAPGKGLEWVSSINIGATYIYYADSVKGRFTISRDNAKNSLYLQMNSLRAEDTAVYYCARPGSPYEYDKAYYSMAYWGQGTTVTVSSASTKGPSVFPLAPSSKSTSGGTAALGCLVKDYFPEPVTVSWNSGALTSGVHTFPAVLQSSGLYSLSSVVTVPSSSLGTQTYICNVNHKPSNTKVDKKVEPKSC
light 2: not shown
notes: Exchange product as applied in the reaction mix; also called bio dig
Consider B8, for which the binding result in the experiment with VEGF [1] is “no binding (tested: 1.3 µM input molecule concentration)”. Further, the relative signal intensity with VEGF [2] was 9.3%; in the experiment with VEGF [3], 6.2%.

B9: bsAb from exchange reaction between anti-dig 2/3-IgG (MHCFcRP-knob-E357K) and anti-PDGF 2/3-IgG (MHCFcRP-hole-K370E) (bispecific antibody, not shown: small tags and cut ends)
heavy 1: QVQLVESGGGLVKPGGSLRLSCAASGFTFSDYAMSWIRQAPGKGLEWVSSINIGATYIYYADSVKGRFTISRDNAKNSLYLQMNSLRAEDTAVYYCARPGSPYEYDKAYYSMAYWGQGTTVTVSSASTKGPSVFPLAPSSKSTSGGTAALGCLVKDYFPEPVTVSWNSGALTSGVHTFPAVLQSSGLYSLSSVVTVPSSSLGTQTYICNVNHKPSNTKVDKKVEPKSC
light 1: not shown
heavy 2: EVQLVESGGGLVQPGGSLRLSCAASGFTFSSYWMSWVRQAPEKGLEWVSTISDGGGLTYYADSVKGRFTISRDNAKNSLYLQMNSLRAEDTAVYYCAESGGYTDWLFGYWGQGTLVTVSSASTKGPSVFPLAPSSKSTSGGTAALGCLVKDYFPEPVTVSWNSGALTSGVHTFPAVLQSSGLYSLSSVVTVPSSSLGTQTYICNVNHKPSNTKVDKKVEPKSC
light 2: not shown
notes: Exchange product as applied in the reaction mix; also called dig PDGF
B9: in the experiment with VEGF [1], the binding result was “no binding (tested: 1.3 µM input molecule concentration)”. The relative signal intensity in the experiment with VEGF [2] came to 9.9%; with VEGF [3] it was 7%.

B10: bsAb from exchange reaction between anti-PDGF 2/3-IgG (MHCFcRP-knob-E357K) and anti-dig 2/3-IgG (MHCFcRP-hole-K370E) (bispecific antibody, not shown: small tags and cut ends)
heavy 1: EVQLVESGGGLVQPGGSLRLSCAASGFTFSSYWMSWVRQAPEKGLEWVSTISDGGGLTYYADSVKGRFTISRDNAKNSLYLQMNSLRAEDTAVYYCAESGGYTDWLFGYWGQGTLVTVSSASTKGPSVFPLAPSSKSTSGGTAALGCLVKDYFPEPVTVSWNSGALTSGVHTFPAVLQSSGLYSLSSVVTVPSSSLGTQTYICNVNHKPSNTKVDKKVEPKSC
light 1: not shown
heavy 2: QVQLVESGGGLVKPGGSLRLSCAASGFTFSDYAMSWIRQAPGKGLEWVSSINIGATYIYYADSVKGRFTISRDNAKNSLYLQMNSLRAEDTAVYYCARPGSPYEYDKAYYSMAYWGQGTTVTVSSASTKGPSVFPLAPSSKSTSGGTAALGCLVKDYFPEPVTVSWNSGALTSGVHTFPAVLQSSGLYSLSSVVTVPSSSLGTQTYICNVNHKPSNTKVDKKVEPKSC
light 2: not shown
notes: Exchange product as applied in the reaction mix; also called PDGF dig
For the molecule B10, the binding result in the experiment with VEGF [1] is reported as “no binding (tested: 1.3 µM input molecule concentration)”. In addition, the relative signal intensity stood at 9.2% with VEGF [2] and 5.9% with VEGF [3].
